For test [1], the target named is human CLDN18.1 (human) (UniProt P56856). The experiment in a line: flow cytometry on CLDN18.1-HEK293 cells, 100 µg/mL antibody, replicate 1. For orientation: A flow cytometer gives signals particle by particle.
The target is the same in test [2]. Nature of the test: flow cytometry on CLDN18.1-HEK293 cells, 100 µg/mL antibody, replicate 2.
Test [3] shares this target. The experiment in a line: flow cytometry on CLDN18.1-HEK293 cells, 100 µg/mL antibody, replicate 3.

Sequence of human CLDN18.1 (human) (P56856 whole entry): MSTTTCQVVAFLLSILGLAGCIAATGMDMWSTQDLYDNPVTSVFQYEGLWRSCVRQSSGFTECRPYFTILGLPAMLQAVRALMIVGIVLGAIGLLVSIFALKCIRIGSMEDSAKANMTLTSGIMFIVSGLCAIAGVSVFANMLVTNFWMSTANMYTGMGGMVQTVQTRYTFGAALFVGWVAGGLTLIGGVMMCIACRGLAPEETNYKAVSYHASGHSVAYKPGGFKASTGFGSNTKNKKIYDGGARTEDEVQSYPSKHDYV

Turning to hIgG1 isotype antibody, the positive rate of cell binding in the test with human CLDN18.1 (human) [1] was 0.063%; in the test with human CLDN18.1 (human) [2], 0.233%; in the test with human CLDN18.1 (human) [3], 0.115%.

For the origin of these results see patent US20220396616A1.
